Where no end group is shown, it is not given here.
T1: human bone morphogenic protein 4 (BMP4) (human, UniProt P12644 293-408)
T1 construct: Bought recombinant human BMP4 (R&D Systems); also called recombinant human BMP4
T1 sequence: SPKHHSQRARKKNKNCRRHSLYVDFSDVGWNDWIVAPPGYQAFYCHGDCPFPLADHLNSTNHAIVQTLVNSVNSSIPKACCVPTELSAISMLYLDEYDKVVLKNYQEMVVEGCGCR

T2: BMP2 epitope peptide QAKHKQRKRLKSSCKRH (SEQ ID NO:93) (human, also: biotin conjugated, site not given here)
T2 construct: Biotinylated peptide captured on a streptavidin chip
T2 peptide: QAKHKQRKRLKSSCKRH

T3: BMP2 epitope peptide ISMLYLDENEKVVLK (SEQ ID NO:92) (human, also: biotin conjugated, site not given here)
T3 construct: Biotinylated peptide captured on a streptavidin chip
T3 peptide: ISMLYLDENEKVVLK


Key:
[1] = target: T4, human bone morphogenic protein 2 (BMP2) (human, UniProt P12643 283-396, Disulfide-linked homodimer of this chain (non-reduced band of about 36 kDa, monomers of 17-18 kDa); one copy is given.); test: SPR (Biacore); mAb captured via anti-human Fc, BMP flowed at 10 nM
T4 construct: Bought recombinant human BMP2 (R&D Systems or Medtronic); also called recombinant human BMP2
T4 sequence (P12643 283-396 limits assumed): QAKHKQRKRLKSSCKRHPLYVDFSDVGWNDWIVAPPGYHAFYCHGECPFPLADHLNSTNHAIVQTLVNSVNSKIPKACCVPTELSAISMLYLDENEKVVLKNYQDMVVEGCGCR
Procedure: (§1) The antigen-antibody association kinetics was followed for 2 minutes and the dissociation kinetics was followed for 8 minutes. The association and dissociation curves were fit to a 1:1 Langmuir binding model using BIAevaluation software (Biacore, AB).

[2] = target: T1, human bone morphogenic protein 4 (BMP4); test: as above
Procedure: as §1

[3] = target: T2, BMP2 epitope peptide QAKHKQRKRLKSSCKRH …; test: SPR (Biacore); biotinylated peptide on streptavidin chip, antibody at 40 ug/ml
[4] = target: T4, human bone morphogenic protein 2 (BMP2); test: cell-based or functional assay
[5] = target: T1, human bone morphogenic protein 4 (BMP4); test: cell-based or functional assay
[6] = target: T3, BMP2 epitope peptide ISMLYLDENEKVVLK …; test: SPR (Biacore); biotinylated peptide on streptavidin chip, antibody at 40 ug/ml
[7] = target: T1, human bone morphogenic protein 4 (BMP4); test: Biacore competition: mAb (two-fold series from 400 nM) pre-incubated with BMP4 (3-10 nM), mixture injected over immobilised type II BMP receptor; response = BMP4 binding to the receptor
Procedure: Both type-I and type-II BMP receptors were covalently linked to a CM5 chip (carboxy methyl dextran coated chip) via primary amines, using the standard amine coupling chemistry and kit provided by Biacore. Mixtures of antibody-antigen complex were flowed across the immobilized receptors. […] Antibody-antigen mixtures were injected at a flow rate of 5 μl/min for 3 minutes.

Row | Kd [1] [pM] | koff [1] [s⁻¹] | kon [1] [M⁻¹ s⁻¹] | Kd [2] [pM] | koff [2] [s⁻¹] | kon [2] [M⁻¹ s⁻¹] | binding result [3] | IC50 (read off the curve) [4] [µg/mL] | IC50 (read off the curve) [5] [µg/mL] | binding result [6] | IC50 (read off the curve) [7] [pM] | Binder
1 | 10 | 3.09e-05 | 2.83e+06 | 0.7 | 3.04e-08 | 45300 | binds | ~3 | ~3 | – | – | 11F2 human monoclonal antibody (antibody, V domains shown, Human IgG from a HuMAb/KM mouse hybridoma) VH: QVQLQESGPGLVKPSETLSLTCTVSGDSIRSYYWSWIRQPPGKGLEWIGYIYYRGSTHYNPSLKSRVTISVDTSKNQFSLKMSSVTAADTAVYYCARICSSISCWGWFDPWGQGTLVTVSS VL: not shown
2 | 30 | 0.00027 | 7.96e+06 | 180 | 0.00056 | 3.14e+06 | – | – | – | – | – | 15F3 human monoclonal antibody (antibody, V domains shown, Human IgG from a HuMAb/KM mouse hybridoma) VH: QVQLVQSGAEVKKPGSSVKVSCKASGGTFSSYAISWVRQAPGQGLEWMGRIIPILGIAQYAQKFQGRVTLTADKSTNTAYMELSSLRSEDTAVYYCARGKDIWGQGTMVTVSS VL: not shown
3 | 120 | 0.000654 | 5.71e+06 | 380 | 0.0014 | 3.65e+06 | – | – | – | – | ~100000 | 33F7 human monoclonal antibody (antibody, V domains shown, Human IgG from a HuMAb/KM mouse hybridoma) VH: QVQLVQSGAEVKKPGSSVKVSCKASGGTFSSYAINWVRQAPGQGLEWMGRLIPILGIANYAQKFQGRVTITADKSTSTAYMELSSLRSEDTAVYYCARGKDIWGQGTMVTVSS VL: EIVLTQSPGTLSLSPGERVTLSCRASQSVSSNYLAWYQQKPGQAPRLLIKGASSRATGIPDRFSGSGSGTDFTLTISRLEPEDFAVYYCQQYGSSPCTFGQGTKLEIK
4 | 20 | 8.26e-05 | 3.39e+06 | 280 | 0.000482 | 1.75e+06 | binds | – | – | – | ~20000 | 12E3 human monoclonal antibody (antibody, V domains shown, Human IgG from a HuMAb/KM mouse hybridoma) VH: QVQLVESGGGVVQPGRSLRLSCAASGFTFSSYGMHWVRQAPGKGLEWVAVIWDDGRKKYYADSVKGRFTISRDNSKNTLYLQMNSLRAEDTAVYYCAREPAGVWGMDVWGQGTTVTVSS VL: DIQMTQSPSSLSASVGDRVTITCRASQGISSWLAWYQQKPEKAPKSLIYAASSLQSGVPSRFSGSGSGTDFTLTISSLQPEDFATYYCQQYNSYPLTFGGGTKVEIK
5 | 190 | 0.000385 | 2.04e+06 | 750 | 0.00197 | 2.61e+06 | – | – | – | – | – | 10F6 human monoclonal antibody (antibody, V domains shown, Human IgG from a HuMAb/KM mouse hybridoma) VH: QVQLVESGGGVVQPGRSLRLSCAASGFTFRSYGIHWVRQAPGKGLEWVAVIWYDGSHKYYADSVKGRFTISRDNSKNTLDLQMNSLRAEDTAVYYCVRGSSNWYFDYWGQGTLVTVSS VL: DIQMTQSPSSLSASVGDRVTITCRASQGISSWLAWYQQKPEKAPKSLIYAASSLQSGVPSRFSGSGSGTDFTLTISSLQPEDFATYYCQQYNSYPLTFGGGTKVEIK

Further lines, the binder ahead of its results:

Row | Binder | Kd [1] [pM] | koff [1] [s⁻¹] | kon [1] [M⁻¹ s⁻¹] | Kd [2] [pM] | koff [2] [s⁻¹] | kon [2] [M⁻¹ s⁻¹] | binding result [3] | IC50 (read off the curve) [4] [µg/mL] | IC50 (read off the curve) [5] [µg/mL] | binding result [6] | IC50 (read off the curve) [7] [pM]
6 | 1F6 human monoclonal antibody (antibody, V domains shown, Human IgG from a HuMAb/KM mouse hybridoma) VH: QVQLQESGPGLVKPSETLSLTCTVSGDSISSYYWSWIRQPPGKGLEWIGYIYYSGSTRYNPPLKSRVTISVDTSKNQFSLKLSSVTAADTAVYYCARICSSTSCWGWFDPWGQGTLVTVSS VL: not shown | 20 | 8.49e-05 | 4.65e+06 | 0.3 | 1.27e-06 | 4.97e+06 | – | – | – | – | –
7 | 8B3 human monoclonal antibody (antibody, V domains shown, Human IgG from a HuMAb/KM mouse hybridoma) VH: QVQLVQSGAEVKKPGSSVKVSCKASGGTFSSYAISWVRQAPGQGLEWMGRIIPILGIAQYAQKFQGRVTLTADKSTSTAYMELSSLRSEDTAVYYCARGKDIWGQGTMVTVSS VL: not shown | 190 | 0.000582 | 3.02e+06 | 180 | 0.000827 | 4.69e+06 | – | – | – | binds | –
8 | 7D6 human monoclonal antibody (antibody, V domains shown, Human IgG from a HuMAb/KM mouse hybridoma) VH: QVQLVQSGAEVKKPGSSVKVSCKASGGTFSSYAISWVRQAPGQGLEWMGRIIPILGIVNYAQKFQGRVTITADKSTSTAYMELSSLRSEDTAVYYCARGKDIWGQGTMVTVSS VL: EIVLTQSPGTLSLSPGERATLSCRASQIVISTYLAWYQQKPGQAPRLLIYGASSRATGIPDRFSGSGSGTDFTLTISRLEPEDFAVYYCQQYGSSPCTFGQGTKLEIK | 280 | 0.00114 | 4e+06 | 420 | 0.0012 | 2.84e+06 | – | – | – | binds | –
9 | 16B7 human monoclonal antibody (antibody, V domains shown, Human IgG from a HuMAb/KM mouse hybridoma) VH: QVQLVESGGGVVQPGRSLRLSCAASGFTFSNYGIHWVRQAPGKGLEWVAVIWYDGSHKYYADSMKGRFTISRDNSKNTLDLQMNSLRAEDTAVYYCARGSSSWYFDLWGRGTLVTVSS VL: DIQMTQSPSSLSASVGDRVTITCRASQGISSWLAWYQQKPEKAPKSLIYAASSLQSGVPSRFSGSGSGTDFTLTISSLQPEDFATYYCQQYNSYPLTFGGGTKVEIK | 80 | 0.000282 | 3.7e+06 | 20 | 6.12e-05 | 2.86e+06 | binds | – | – | – | –
10 | 6H4 human monoclonal antibody (antibody, V domains shown, Human IgG from a HuMAb/KM mouse hybridoma) VH: QVHLQQWGAGLLKPSETLSLTCAVYGGSFSGYYWSWIRQPPGKGLEWIGEINHSGSTNYNPSLKSRVTISVDTSKNQFSLKLSSVTAADTAVYYCAREYYYGSESEYFQHWGQGTLVTVSS VL: EIVLTQSPATLSLSPGERATLSCRASQSVSSYLAWYQQKPGQAPRLLIYDASNRATGIPARFSGSGSGTDFTLTISSLEPEDFAVYYCQQRSNWPHTFGQGTKLEIK | 100 | 0.000198 | 1.42e+06 | 300 | 0.000497 | 2e+06 | – | – | – | – | –
